# According to the Immune Epitope Database (IEDB):
# Key:
# Assay in all cases: IEDB peptide-MHC binding, purified MHC/competitive/radioactivity; filed as Kd, often an IC50 or EC50 that approximates it; ≥ and ≤ were set here for values at or beyond the usual limits of such assays
# HLA-A*11:01 = molecular target: HLA-A*11:01
# HLA-A*68:01 = molecular target: HLA-A*68:01
# HLA-A*31:01 = molecular target: HLA-A*31:01
# HLA-A*33:01 = molecular target: HLA-A*33:01
# HLA-A*03:01 = molecular target: HLA-A*03:01
# [1] = source organism: Dengue virus 3 Martinique/1243/1999
# [2] = source organism: Vaccinia virus WR
# [3] = source organism: Dengue virus 4 Philippines/H241/1956
# [4] = source organism: SARS coronavirus Tor2
# [5] = source organism: Mammarenavirus juninense
# [6] = source organism: Mammarenavirus machupoense
# [7] = source organism: Dengue virus 1 Brazil/97-11/1997
# [8] = source organism: Mammarenavirus brazilense
# [9] = source organism: Dengue virus 2 Jamaica/1409/1983
# [10] = source organism: Mammarenavirus whitewaterense
# [11] = source organism: Lymphocytic choriomeningitis virus (strain Armstrong)
Sequence,Kd (HLA-A*68:01; [2]) [nM],Kd (HLA-A*31:01; [2]) [nM],Kd (HLA-A*33:01; [2]) [nM],Kd (HLA-A*11:01; [2]) [nM],Kd (HLA-A*03:01; [2]) [nM],further results
AAIDGEYRLK,,,,,,Kd (HLA-A*11:01; [1]): 349 nM
AIDRQVSVK,11300,4370,≥ 77700,42.1,144,
AIKILTGFR,,,,,,Kd (HLA-A*31:01; [3]): 54.7 nM
ALALLLLDR,,,,,,Kd (HLA-A*68:01; [4]): ≥ 52900 nM; Kd (HLA-A*31:01; [4]): 8000 nM; Kd (HLA-A*33:01; [4]): ≥ 51700 nM; Kd (HLA-A*11:01; [4]): 7530 nM; Kd (HLA-A*03:01; [4]): 3150 nM
ALYEQVVMDY,,,,,,Kd (HLA-A*68:01; [4]): ≥ 32500 nM; Kd (HLA-A*31:01; [4]): ≥ 44600 nM; Kd (HLA-A*33:01; [4]): ≥ 27100 nM; Kd (HLA-A*11:01; [4]): 3430 nM; Kd (HLA-A*03:01; [4]): 348 nM
ALYYVHSLLY,2240,11200,≥ 24200,9.2,0.39,
AMYYAVLSEY,982,2850,5190,89.8,≤ 1,
ASILSLETVK,1770,12800,≥ 70000,25.4,4700,
ATKRYPGVMY,≥ 70200,18100,≥ 70000,164,32.8,
AVAKCNLNH,,,,,,Kd (HLA-A*68:01; [5]): ≥ 46500 nM; Kd (HLA-A*31:01; [5]): 688 nM; Kd (HLA-A*11:01; [5]): 230 nM; Kd (HLA-A*03:01; [5]): 84.6 nM
DAVRAFLLR,0.831,484,23.4,13700,≥ 34400,
DTNLITCNDH,,,,,,Kd (HLA-A*68:01; [6]): ≥ 70100 nM; Kd (HLA-A*31:01; [6]): ≥ 70000 nM; Kd (HLA-A*33:01; [6]): ≥ 30800 nM; Kd (HLA-A*11:01; [6]): ≥ 69700 nM; Kd (HLA-A*03:01; [6]): ≥ 70000 nM
DTPSPPEVER,,,,,,Kd (HLA-A*68:01; [7]): 610 nM
EFIFSALDEK,1.3,≥ 70000,1630,1.42,15.5,
ELAELLEMK,13.3,15900,1210,1270,3800,
EMILMKMKK,,,,,,Kd (HLA-A*68:01; [3]): 74.2 nM
EVMRSRWSR,,,,,,Kd (HLA-A*68:01; [7]): 13.1 nM; Kd (HLA-A*33:01; [7]): 4.12 nM
FIFSLKDTLK,,,,,,Kd (HLA-A*68:01; [1]): 54.1 nM
FIMAYVNQAH,,,,,,Kd (HLA-A*68:01; [8]): 3450 nM; Kd (HLA-A*31:01; [8]): ≥ 30200 nM; Kd (HLA-A*33:01; [8]): 14500 nM; Kd (HLA-A*11:01; [8]): ≥ 42700 nM; Kd (HLA-A*03:01; [8]): ≥ 20300 nM
FIVPEFAKQY,11300,≥ 70000,≥ 70000,≥ 69800,≥ 70100,
FLISGKGIGK,,,,,,Kd (HLA-A*03:01; [1]): 53.2 nM
FMLIFNVKSK,37.7,6050,19400,3430,211,
GFLSRNKKPR,,,,,,Kd (HLA-A*33:01; [7]): 1770 nM
GILARWSSFK,,,,,,Kd (HLA-A*11:01; [7]): 29.4 nM; Kd (HLA-A*03:01; [7]): 2.06 nM

Sequence,Kd (HLA-A*68:01; [2]) [nM],Kd (HLA-A*31:01; [2]) [nM],Kd (HLA-A*33:01; [2]) [nM],Kd (HLA-A*11:01; [2]) [nM],Kd (HLA-A*03:01; [2]) [nM],further results
GLLSGQGPMK,,,,,,Kd (HLA-A*03:01; [7]): 2.62 nM
GTMKIKDEER,,,,,,Kd (HLA-A*68:01; [7]): 165 nM
GTVTMECSPR,,,,,,Kd (HLA-A*68:01; [9]): 89 nM
GVAMPNLYK,,,,,,Kd (HLA-A*68:01; [4]): 6.9 nM; Kd (HLA-A*31:01; [4]): 1650 nM; Kd (HLA-A*33:01; [4]): 14800 nM
GVFKNPCTSH,,,,,,Kd (HLA-A*68:01; [10]): ≥ 26000 nM; Kd (HLA-A*31:01; [10]): ≥ 30100 nM; Kd (HLA-A*33:01; [10]): ≥ 70000 nM; Kd (HLA-A*11:01; [10]): 2690 nM; Kd (HLA-A*03:01; [10]): 6290 nM
IILFILFFAY,325,1330,2570,11100,720,
IISRTRLYDY,4360,13200,≥ 70000,1270,225,
ILSKIPYLR,13.3,2.54,97.4,30.7,605,
IMAYVNQAH,,,,,,Kd (HLA-A*68:01; [8]): ≥ 23500 nM; Kd (HLA-A*31:01; [8]): 3410 nM; Kd (HLA-A*33:01; [8]): ≥ 36000 nM; Kd (HLA-A*11:01; [8]): ≥ 26900 nM; Kd (HLA-A*03:01; [8]): 2210 nM
IMKNTTNTRR,,,,,,Kd (HLA-A*31:01; [9]): 13.9 nM
IVASVNMVSR,,,,,,Kd (HLA-A*68:01; [1]): 6.75 nM
IYKGVYQFK,,,,,,Kd (HLA-A*68:01; [11]): 8810 nM; Kd (HLA-A*31:01; [11]): 3.21 nM; Kd (HLA-A*33:01; [11]): 13.5 nM; Kd (HLA-A*11:01; [11]): 718 nM; Kd (HLA-A*03:01; [11]): 198 nM
KFAEESYTYY,1130,≥ 21700,≥ 42100,10200,4860,
KLGDKGSPYY,5080,≥ 23100,≥ 39400,3570,2.48,
KLITEWCCR,,,,,,Kd (HLA-A*31:01; [9]): 10.3 nM
KLYEEPLSK,,,,,,Kd (HLA-A*03:01; source organism: Homo sapiens): 2.5 nM
KSNILMWNK,2870,1.01,13700,2.25,27.5,
KTDFGFYQVK,,,,,,Kd (HLA-A*11:01; [3]): 56 nM; Kd (HLA-A*03:01; [3]): 27.4 nM
KTQFNYFKK,,,,,,Kd (HLA-A*68:01; [4]): 2830 nM; Kd (HLA-A*31:01; [4]): 2.32 nM; Kd (HLA-A*33:01; [4]): ≥ 77300 nM; Kd (HLA-A*11:01; [4]): 2.26 nM; Kd (HLA-A*03:01; [4]): 115 nM
KVDTRTPRAK,,,,,,Kd (HLA-A*03:01; [7]): 7.24 nM
KVVKKLSVIR,482,56.3,3620,916,5120,
LIDLAFLIK,≥ 77700,2330,≥ 77700,462,3480,
LIIGPMFSGK,9.92,1270,2560,1.81,6.17,
